The text below walks through data of paper PMC11969024 (2025).

The labels stand for the following.
B1: peptide HD2 (from tick evasin EVA4) / CCL4 (biotinylated, synthetic) (parent complex)
chain 1: EEDDYTAYAPLTCYFT
chain 2: APMGSDPPTACCFSYTARKLPRNFVVDYYETSSLCSQPAVVFQTKRSKQVCADPSESWVQEYVYDLELN

The test covers variants of B1.
Take chain 1 EEDDTTAYAPLTCYFT [chain 1 Y5T]: the enrichment is -4.65 log2 (difference from the parental peptide).

As for chain 1 EEDDWTAYAPLTCYFT [chain 1 Y5W], the enrichment was 1.96 log2 (difference from the parental peptide).

For the variant chain 1 EEDDVTAYAPLTCYFT [chain 1 Y5V], the enrichment is -5.67 log2 (difference from the parental peptide).

Regarding chain 1 EEDDMTAYAPLTCYFT [chain 1 Y5M], the enrichment was -3.3 log2 (difference from the parental peptide).

For the variant chain 1 EEDDHTAYAPLTCYFT [chain 1 Y5H], the enrichment is -5.89 log2 (difference from the parental peptide).

Consider chain 1 EEDDRTAYAPLTCYFT [chain 1 Y5R], for which the enrichment was -5.62 log2 (difference from the parental peptide).

In the case of chain 1 EEDDETAYAPLTCYFT [chain 1 Y5E], the enrichment is -2.05 log2 (difference from the parental peptide).

With chain 1 EEDDYTAYAPLTCYST [chain 1 F15S], the enrichment is -0.0882 log2 (difference from the parental peptide).

Regarding chain 1 EEDDYTAYAPLTCYIT [chain 1 F15I], the enrichment is 0.969 log2 (difference from the parental peptide).

With chain 1 EEDDYTAYAPLTCYHT [chain 1 F15H], the enrichment was 0.795 log2 (difference from the parental peptide).

chain 1 EEDDYTAYAPLTCYLT [chain 1 F15L]: the enrichment is 0.921 log2 (difference from the parental peptide).

For chain 1 EEDDYTAYAPLTCYKT [chain 1 F15K], the enrichment was 0.923 log2 (difference from the parental peptide).

As for chain 1 EEDDYTAYAPLTCYQT [chain 1 F15Q], the enrichment was 0.832 log2 (difference from the parental peptide).

Turning to chain 1 EEDDYTAYAPLTCYRT [chain 1 F15R], the enrichment is 0.256 log2 (difference from the parental peptide).

For the variant chain 1 EEDDYTAYAPFTCYFT [chain 1 L11F], the enrichment was -0.923 log2 (difference from the parental peptide).

For chain 1 EEDDYTAYAPPTCYFT [chain 1 L11P], the enrichment was -7.67 log2 (difference from the parental peptide).

For the variant chain 1 EEDDYTAYAPKTCYFT [chain 1 L11K], the enrichment was 1.88 log2 (difference from the parental peptide).

Turning to chain 1 EEDDYTAYAPDTCYFT [chain 1 L11D], the enrichment is -7.07 log2 (difference from the parental peptide).

As for chain 1 EEDDYTAYAPSTCYFT [chain 1 L11S], the enrichment is -0.188 log2 (difference from the parental peptide).

For chain 1 EEDDYTAYAPGTCYFT [chain 1 L11G], the enrichment is -4.26 log2 (difference from the parental peptide).

Turning to chain 1 EEDDYTAYAPETCYFT [chain 1 L11E], the enrichment is -2.34 log2 (difference from the parental peptide).

Take chain 1 EEDDYTAYAPNTCYFT [chain 1 L11N]: the enrichment is -3.21 log2 (difference from the parental peptide).

Take chain 1 EEDDYTAYAPLECYFT [chain 1 T12E]: the enrichment was -1.15 log2 (difference from the parental peptide).

As for chain 1 EEDDYTAYAPLQCYFT [chain 1 T12Q], the enrichment is 1 log2 (difference from the parental peptide).

For chain 1 EEDDYTAYAPLFCYFT [chain 1 T12F], the enrichment is 2.42 log2 (difference from the parental peptide).

With chain 1 EEDDYTAYAGLTCYFT [chain 1 P10G], the enrichment is -6.62 log2 (difference from the parental peptide).

Regarding chain 1 EEDDYTAYAYLTCYFT [chain 1 P10Y], the enrichment is -7.13 log2 (difference from the parental peptide).

With chain 1 EEDDYTAYATLTCYFT [chain 1 P10T], the enrichment is -7.43 log2 (difference from the parental peptide).

Consider chain 1 EEDDYTAYAELTCYFT [chain 1 P10E], for which the enrichment is -4.88 log2 (difference from the parental peptide).

Consider chain 1 EEDDYTANAPLTCYFT [chain 1 Y8N], for which the enrichment was -2.94 log2 (difference from the parental peptide).

As to chain 1 EEDDYTAIAPLTCYFT [chain 1 Y8I], the enrichment was -7.37 log2 (difference from the parental peptide).

In the case of chain 1 EEDDYTAWAPLTCYFT [chain 1 Y8W], the enrichment was -0.806 log2 (difference from the parental peptide).

For chain 1 EEDDYTAPAPLTCYFT [chain 1 Y8P], the enrichment was -0.864 log2 (difference from the parental peptide).

For the variant chain 1 EEDDYTAVAPLTCYFT [chain 1 Y8V], the enrichment is -2.68 log2 (difference from the parental peptide).

With chain 1 EEDDYTAAAPLTCYFT [chain 1 Y8A], the enrichment was -1.67 log2 (difference from the parental peptide).

As to chain 1 EEDDYTAFAPLTCYFT [chain 1 Y8F], the enrichment was 0.697 log2 (difference from the parental peptide).

In the case of chain 1 EEDDYTAYAPLTCRFT [chain 1 Y14R], the enrichment was -4.11 log2 (difference from the parental peptide).

As to chain 1 EEDDYTAYAPLTCMFT [chain 1 Y14M], the enrichment was -2.24 log2 (difference from the parental peptide).

Take chain 1 EEDDYTAYAPLTCFFT [chain 1 Y14F]: the enrichment is 0.581 log2 (difference from the parental peptide).

As for chain 1 EEDDYTAYAPLTCHFT [chain 1 Y14H], the enrichment was -0.0476 log2 (difference from the parental peptide).

With chain 1 EEDDYTAYAPLTCWFT [chain 1 Y14W], the enrichment is -0.462 log2 (difference from the parental peptide).

As for chain 1 EEDDYTAYAPLTCGFT [chain 1 Y14G], the enrichment is -6.07 log2 (difference from the parental peptide).

In the case of chain 1 EEDDYTAYAPLTCVFT [chain 1 Y14V], the enrichment was -1.84 log2 (difference from the parental peptide).

Regarding chain 1 EEDDYTAYAPLTCLFT [chain 1 Y14L], the enrichment was -2.84 log2 (difference from the parental peptide).

Take chain 1 EEDDYTAYAPLTCCFT [chain 1 Y14C]: the enrichment is -4.56 log2 (difference from the parental peptide).

With chain 1 EEDDYTAYAPLTCKFT [chain 1 Y14K], the enrichment is -5.73 log2 (difference from the parental peptide).

chain 1 EEDDYTAYAPLTCEFT [chain 1 Y14E]: the enrichment is -5.52 log2 (difference from the parental peptide).

Take chain 1 EEDDYTAYAPLTCYFH [chain 1 T16H]: the enrichment was 0.117 log2 (difference from the parental peptide).

For chain 1 EEDDYTAYAPLTCYFV [chain 1 T16V], the enrichment is -0.281 log2 (difference from the parental peptide).

On to chain 1 EEDDYTAYAPLTCYFE [chain 1 T16E], for which the enrichment is 0.827 log2 (difference from the parental peptide).

As for chain 1 EEDDYTAYAPLTCYFR [chain 1 T16R], the enrichment is -0.298 log2 (difference from the parental peptide).

For chain 1 EEDDYTAYAPLTCYFP [chain 1 T16P], the enrichment was 1.45 log2 (difference from the parental peptide).

For the variant chain 1 EEDDYTAYAPLTCYFL [chain 1 T16L], the enrichment is 0.489 log2 (difference from the parental peptide).

For chain 1 EEDDYTAYAPLTCYFM [chain 1 T16M], the enrichment was 0.277 log2 (difference from the parental peptide).

Take chain 1 EEDDYTAYAPLTCYFN [chain 1 T16N]: the enrichment was 0.632 log2 (difference from the parental peptide).

Turning to chain 1 EEDDYTAYAPLTFYFT [chain 1 C13F], the enrichment is -8.2 log2 (difference from the parental peptide).

As for chain 1 EEDDYTAYAPLTAYFT [chain 1 C13A], the enrichment is -7.87 log2 (difference from the parental peptide).

Turning to chain 1 EEDDYTAYAPLTLYFT [chain 1 C13L], the enrichment was -6.3 log2 (difference from the parental peptide).

As to chain 1 EEDDYTAYAPLTPYFT [chain 1 C13P], the enrichment was -9.17 log2 (difference from the parental peptide).

Take chain 1 EEDDYTAYAPLTIYFT [chain 1 C13I]: the enrichment is -3.66 log2 (difference from the parental peptide).

For chain 1 EEDDYTAYAPLTYYFT [chain 1 C13Y], the enrichment was -5.99 log2 (difference from the parental peptide).

Turning to chain 1 EEDDYTAYAPLTGYFT [chain 1 C13G], the enrichment is -9 log2 (difference from the parental peptide).

With chain 1 EEDDYTAYAPLTNYFT [chain 1 C13N], the enrichment is -7.77 log2 (difference from the parental peptide).

Turning to chain 1 EEDDYTAYFPLTCYFT [chain 1 A9F], the enrichment was -6.63 log2 (difference from the parental peptide).

On to chain 1 EEDDYTAYEPLTCYFT [chain 1 A9E], for which the enrichment was 0.657 log2 (difference from the parental peptide).

chain 1 EEDDYTAYWPLTCYFT [chain 1 A9W]: the enrichment is -3.72 log2 (difference from the parental peptide).

chain 1 EEDDYTAYSPLTCYFT [chain 1 A9S]: the enrichment was -0.615 log2 (difference from the parental peptide).

Turning to chain 1 EEDDYTAYIPLTCYFT [chain 1 A9I], the enrichment is -7.98 log2 (difference from the parental peptide).

Take chain 1 EEDDYTAYHPLTCYFT [chain 1 A9H]: the enrichment is -6.2 log2 (difference from the parental peptide).

Regarding chain 1 EEDDYTAYYPLTCYFT [chain 1 A9Y], the enrichment was -5.65 log2 (difference from the parental peptide).

Regarding chain 1 EEDDYTAYVPLTCYFT [chain 1 A9V], the enrichment was -8.22 log2 (difference from the parental peptide).

Consider chain 1 EEDDYTAYTPLTCYFT [chain 1 A9T], for which the enrichment was -2.45 log2 (difference from the parental peptide).

Take chain 1 EEDDYTAYGPLTCYFT [chain 1 A9G]: the enrichment was -5.26 log2 (difference from the parental peptide).

For the variant chain 1 EEDDYTAYQPLTCYFT [chain 1 A9Q], the enrichment was -0.79 log2 (difference from the parental peptide).

As for chain 1 EADDYTAYAPLTCYFT [chain 1 E2A], the enrichment was -0.79 log2 (difference from the parental peptide).

For chain 1 EPDDYTAYAPLTCYFT [chain 1 E2P], the enrichment is -3.03 log2 (difference from the parental peptide).

As to chain 1 ERDDYTAYAPLTCYFT [chain 1 E2R], the enrichment was -4.37 log2 (difference from the parental peptide).

Turning to chain 1 EDDDYTAYAPLTCYFT [chain 1 E2D], the enrichment was 1.08 log2 (difference from the parental peptide).

For chain 1 ESDDYTAYAPLTCYFT [chain 1 E2S], the enrichment was -2.25 log2 (difference from the parental peptide).

chain 1 EEDNYTAYAPLTCYFT [chain 1 D4N]: the enrichment was -2.63 log2 (difference from the parental peptide).

As to chain 1 EEDLYTAYAPLTCYFT [chain 1 D4L], the enrichment is -3.89 log2 (difference from the parental peptide).

Regarding chain 1 EEDGYTAYAPLTCYFT [chain 1 D4G], the enrichment was -4.2 log2 (difference from the parental peptide).

Consider chain 1 EEDVYTAYAPLTCYFT [chain 1 D4V], for which the enrichment was -4.25 log2 (difference from the parental peptide).

As to chain 1 EEDSYTAYAPLTCYFT [chain 1 D4S], the enrichment was -3.38 log2 (difference from the parental peptide).

As to chain 1 EEDFYTAYAPLTCYFT [chain 1 D4F], the enrichment was -3.98 log2 (difference from the parental peptide).

For chain 1 EEDDYTMYAPLTCYFT [chain 1 A7M], the enrichment was 2.06 log2 (difference from the parental peptide).

On to chain 1 EEDDYTQYAPLTCYFT [chain 1 A7Q], for which the enrichment was 2.27 log2 (difference from the parental peptide).

For chain 1 EEDDYTDYAPLTCYFT [chain 1 A7D], the enrichment is 1.81 log2 (difference from the parental peptide).

Take chain 1 EEDDYTTYAPLTCYFT [chain 1 A7T]: the enrichment was -0.191 log2 (difference from the parental peptide).

For chain 1 EEDDYTHYAPLTCYFT [chain 1 A7H], the enrichment is -0.536 log2 (difference from the parental peptide).

As for chain 1 EEDDYTGYAPLTCYFT [chain 1 A7G], the enrichment was 0.187 log2 (difference from the parental peptide).

Turning to chain 1 EEDDYTIYAPLTCYFT [chain 1 A7I], the enrichment was -0.497 log2 (difference from the parental peptide).

Turning to chain 1 EEDDYTFYAPLTCYFT [chain 1 A7F], the enrichment is -2.35 log2 (difference from the parental peptide).

In the case of chain 1 REDDYTAYAPLTCYFT [chain 1 E1R], the enrichment was -3.09 log2 (difference from the parental peptide).

As for chain 1 IEDDYTAYAPLTCYFT [chain 1 E1I], the enrichment is -0.889 log2 (difference from the parental peptide).

Take chain 1 VEDDYTAYAPLTCYFT [chain 1 E1V]: the enrichment was -1.21 log2 (difference from the parental peptide).

In the case of chain 1 QEDDYTAYAPLTCYFT [chain 1 E1Q], the enrichment is -0.262 log2 (difference from the parental peptide).

For the variant chain 1 SEDDYTAYAPLTCYFT [chain 1 E1S], the enrichment was -0.537 log2 (difference from the parental peptide).

Turning to chain 1 YEDDYTAYAPLTCYFT [chain 1 E1Y], the enrichment was -1.6 log2 (difference from the parental peptide).

As to chain 1 AEDDYTAYAPLTCYFT [chain 1 E1A], the enrichment is -0.519 log2 (difference from the parental peptide).

In the case of chain 1 MEDDYTAYAPLTCYFT [chain 1 E1M], the enrichment was -0.205 log2 (difference from the parental peptide).

chain 1 EEDDYLAYAPLTCYFT [chain 1 T6L]: the enrichment was -2.59 log2 (difference from the parental peptide).

Regarding chain 1 EEDDYFAYAPLTCYFT [chain 1 T6F], the enrichment was -4.46 log2 (difference from the parental peptide).

In the case of chain 1 EEDDYEAYAPLTCYFT [chain 1 T6E], the enrichment was 2.94 log2 (difference from the parental peptide).

In the case of chain 1 EEDDYKAYAPLTCYFT [chain 1 T6K], the enrichment was -1.03 log2 (difference from the parental peptide).

Turning to chain 1 EEDDYVAYAPLTCYFT [chain 1 T6V], the enrichment was -3.51 log2 (difference from the parental peptide).

In the case of chain 1 EEDDYGAYAPLTCYFT [chain 1 T6G], the enrichment was 2.91 log2 (difference from the parental peptide).

Turning to chain 1 EEDDYNAYAPLTCYFT [chain 1 T6N], the enrichment is 1.16 log2 (difference from the parental peptide).

With chain 1 EESDYTAYAPLTCYFT [chain 1 D3S], the enrichment was -2.37 log2 (difference from the parental peptide).

Regarding chain 1 EEIDYTAYAPLTCYFT [chain 1 D3I], the enrichment was -3.64 log2 (difference from the parental peptide).

Regarding chain 1 EEPDYTAYAPLTCYFT [chain 1 D3P], the enrichment was -2.56 log2 (difference from the parental peptide).

Take chain 1 EERDYTAYAPLTCYFT [chain 1 D3R]: the enrichment was -4.7 log2 (difference from the parental peptide).
